Results taken from the supplement of paper PMC10724198.
± gives the standard deviation of the averaged measurements.

Tested on: Saccharomyces cerevisiae
Experiment: protein stability index of tFT-peptide fusion (C-terminal peptide) (PSI (0-1 scale)); higher = more stable (slower turnover)
Conditions: temperature: 30 C
Procedure: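 MPS profiling in S. cerevisiae of the yeast C-terminome library: the last 12 aa of each annotated ORF are fused to the C-terminus of a sfGFP-mCherry timer, after a GGGS linker. Cells are FACS-sorted into 8 mCherry/sfGFP bins and deep-sequenced. PSI runs from 0 (unstable) to 1 (stable); wild type and das1Δ backgrounds, two technical replicates each.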

[1] = genetic background: das1 deletion

Row | Sequence | protein stability index [1] | protein stability index (genetic background: wild type)
1 | MDSRVAHGNILI [SRB5 C-terminal 12 aa] | 0.70004 ± 0.00046 | 0.688 ± 0.092
2 | DLIDDKTNRGRR [PRP2 C-terminal 12 aa] | 0.696 ± 0.029 | 0.697 ± 0.023
3 | LLLLILNECYPA [BUD30 C-terminal 12 aa] | 0.518 ± 0.0085 | 0.539 ± 0.033
4 | DKHEQPQIESPK [CFD1 C-terminal 12 aa] | 0.7 ± 0.026 | 0.684 ± 0.021
5 | SFERLLVETIYS [ALG13 C-terminal 12 aa] | 0.5878 ± 0.0031 | 0.624 ± 0.01
6 | ADDDIFVNGFLR [YHL002C-A C-terminal 12 aa] | 0.719 ± 0.02 | 0.7 ± 0.023
7 | LVSYFLKVQMNL [YNL095C C-terminal 12 aa] | 0.514 ± 0.02 | 0.491 ± 0.011
8 | NGSDNVTPGGRL [STE50 C-terminal 12 aa] | 0.708 ± 0.014 | 0.685 ± 0.022
9 | KCVNCGHRWKEN [RPC11 C-terminal 12 aa] | 0.708 ± 0.012 | 0.616 ± 0.02
10 | LGDAYVSSDEEF [YEF3 C-terminal 12 aa] | 0.683 ± 0.016 | 0.6769 ± 0.0049
11 | QVVAIIKKAYEY [ADH4 C-terminal 12 aa] | 0.707 ± 0.0071 | 0.679 ± 0.015
12 | LFVEETNDIGYK [TRE2 C-terminal 12 aa] | 0.736 ± 0.026 | 0.691 ± 0.021
13 | LTTSVLCCVVFT [CNE1 C-terminal 12 aa] | 0.348 ± 0.0076 | 0.364 ± 0.0028
14 | RQTRNQTKELDS [DPB11 C-terminal 12 aa] | 0.703 ± 0.033 | 0.691 ± 0.037
15 | TEEVEKAISKSQ [YFH1 C-terminal 12 aa] | 0.7018 ± 0.0027 | 0.7208 ± 0.0067
16 | SILGMQDMWKAT [PEX11 C-terminal 12 aa] | 0.707 ± 0.017 | 0.713 ± 0.022
17 | SRFRTNIAFITQ [YJL015C C-terminal 12 aa] | 0.71 ± 0.012 | 0.70081 ± 0.00066
18 | ELPNGKVIYSRK [ERJ5 C-terminal 12 aa] | 0.687 ± 0.067 | 0.745 ± 0.025
19 | KAERCQYRLVTA [YCR025C C-terminal 12 aa] | 0.475 ± 0.031 | 0.508 ± 0.012
20 | KVESSDCSFEFA [VID24 C-terminal 12 aa] | 0.6988 ± 0.0069 | 0.696 ± 0.011
21 | LDGSREVGAAKS [UME1 C-terminal 12 aa] | 0.682 ± 0.026 | 0.7109 ± 0.0018

Row | Sequence | protein stability index [1] | protein stability index (genetic background: wild type)
22 | DTVPPEKLMKFV [RAX2 C-terminal 12 aa] | 0.7111 ± 0.0024 | 0.66 ± 0.027
23 | VKSLQVKKSHLK [CDC12 C-terminal 12 aa] | 0.704 ± 0.0088 | 0.742 ± 0.13
24 | HPWFAEYYHHAS [PHO85 C-terminal 12 aa] | 0.7438 ± 0.0043 | 0.7174 ± 0.0026
25 | QSLYKDATSHWL [GYP1 C-terminal 12 aa] | 0.7085 ± 0.0033 | 0.6825 ± 0.0036
26 | DDQDAISNQEKK [EIS1 C-terminal 12 aa] | 0.712 ± 0.057 | 0.701 ± 0.038
27 | PKIGILHNYLYL [YFT2 C-terminal 12 aa] | 0.698 ± 0.015 | 0.654 ± 0.0094
28 | CNNVLYIRELPN [SMX3 C-terminal 12 aa] | 0.689 ± 0.016 | 0.6801 ± 0.0029
29 | ALVGIFVLAFFN [HPF1 C-terminal 12 aa] | 0.29 ± 0.043 | 0.251 ± 0.0084
30 | TDTTLIYDIDLE [SPT8 C-terminal 12 aa] | 0.709 ± 0.036 | 0.718 ± 0.039
31 | YSELCIIVGTYY [YDR003W-A C-terminal 12 aa] | 0.431 ± 0.012 | 0.439 ± 0.036
32 | VDGFNDALQLSK [HEM14 C-terminal 12 aa] | 0.685 ± 0.022 | 0.708 ± 0.026
33 | ATAREWTKKYAV [UBC4 C-terminal 12 aa] | 0.702 ± 0.0071 | 0.7122 ± 0.0016
34 | YYNLKNCITSET [YHR050W-A C-terminal 12 aa] | 0.661 ± 0.007 | 0.6465 ± 0.0017
35 | DNLKYSLDCDFS [BGL2 C-terminal 12 aa] | 0.709 ± 0.023 | 0.666 ± 0.0075
36 | FCKEKVYSKLLV [YNL103W-A C-terminal 12 aa] | 0.648 ± 0.015 | 0.559 ± 0.0084
37 | AKYSKKKNNKNK [DEG1 C-terminal 12 aa] | 0.689 ± 0.043 | 0.668 ± 0.021
38 | GVEKYWGILSNE [SCW4 C-terminal 12 aa] | 0.723 ± 0.0089 | 0.726 ± 0.039
39 | IEELTDTLNSTI [PEX29 C-terminal 12 aa] | 0.7059 ± 0.0039 | 0.698 ± 0.024
40 | ILTLVETLSEQE [VMA22 C-terminal 12 aa] | 0.704 ± 0.009 | 0.7049 ± 0.0056
41 | AYEFDGDKVIVG [RIP1 C-terminal 12 aa] | 0.704 ± 0.018 | 0.6846 ± 0.0025
42 | QIVEEWIVSTEA [CLB4 C-terminal 12 aa] | 0.623 ± 0.012 | 0.63 ± 0.023

Row | Sequence | protein stability index [1] | protein stability index (genetic background: wild type)
43 | FADTRPFDEIYR [ATP23 C-terminal 12 aa] | 0.73 ± 0.00073 | 0.727 ± 0.063
44 | STIQTTSVDPTT [BSC1 C-terminal 12 aa] | 0.7104 ± 0.0039 | 0.682 ± 0.036
45 | IPLVISYCISEE [ATX2 C-terminal 12 aa] | 0.575 ± 0.013 | 0.596 ± 0.024
46 | QIVNSTPVFTWC [LSB6 C-terminal 12 aa] | 0.653 ± 0.03 | 0.652 ± 0.034
47 | FPEKNIVNLKSA [CHA1 C-terminal 12 aa] | 0.6971 ± 0.0067 | 0.1495 ± 0.0011
48 | NKGSQLLAKLLK [PUF6 C-terminal 12 aa] | 0.7305 ± 0.0034 | 0.674 ± 0.036
49 | LLLSFYFDFYPF [YEL050W-A C-terminal 12 aa] | 0.515 ± 0.009 | 0.6535 ± 0.0032
50 | IQAMLKSLDSLK [SNL1 C-terminal 12 aa] | 0.691 ± 0.034 | 0.66 ± 0.03
51 | FDTLIVHHFSSE [KHA1 C-terminal 12 aa] | 0.733 ± 0.01 | 0.682 ± 0.021
52 | TAAQMLEVQNEA [ARI1 C-terminal 12 aa] | 0.6837 ± 0.0021 | 0.7016 ± 0.0034
53 | FFRLGWSTWLHY [YOR029W C-terminal 12 aa] | 0.502 ± 0.01 | 0.351 ± 0.0046
54 | EKKDTEGDVDMD [SSE1 C-terminal 12 aa] | 0.678 ± 0.0095 | 0.666 ± 0.011
55 | ERKPLDFLRTAK [MRPL39 C-terminal 12 aa] | 0.6743 ± 0.0021 | 0.659 ± 0.0088
56 | LIGGNTNDGLSK [CHA4 C-terminal 12 aa] | 0.683 ± 0.023 | 0.722 ± 0.029
57 | TYMLNGPAGLLM [YNL165W C-terminal 12 aa] | 0.6979 ± 0.0034 | 0.684 ± 0.024
58 | EYPWEKPKTLKF [SAM1 C-terminal 12 aa] | 0.7167 ± 0.00082 | 0.6917 ± 0.0068
59 | WYNPSNQTYKSK [YLR222C-A C-terminal 12 aa] | 0.719 ± 0.038 | 0.727 ± 0.071
60 | LEAATNFLLDSA [EDE1 C-terminal 12 aa] | 0.722 ± 0.027 | 0.6796 ± 0.004
61 | CPSVEEIANETE [GCV2 C-terminal 12 aa] | 0.696 ± 0.013 | 0.653 ± 0.0098
62 | KDKKKDKSNSSI [HMO1 C-terminal 12 aa] | 0.7022 ± 0.0049 | 0.691 ± 0.052
63 | EKVRCIKKYQSW [APD1 C-terminal 12 aa] | 0.726 ± 0.0064 | 0.727 ± 0.034

Row | Sequence | protein stability index [1] | protein stability index (genetic background: wild type)
64 | VIIKVFIRRSDA [YJL086C C-terminal 12 aa] | 0.515 ± 0.024 | 0.461 ± 0.014
65 | MAINDCFDQAQG [YER076C C-terminal 12 aa] | 0.695 ± 0.0062 | 0.693 ± 0.012
66 | TESENDALDDLL [TLG2 C-terminal 12 aa] | 0.714 ± 0.013 | 0.707 ± 0.0078
67 | VDTILDEDFLLR [APC11 C-terminal 12 aa] | 0.715 ± 0.016 | 0.712 ± 0.013
68 | MPSATTKNPYAQ [CAF120 C-terminal 12 aa] | 0.709 ± 0.042 | 0.686 ± 0.034
69 | FEWEDDESDEIA [ATG7 C-terminal 12 aa] | 0.7397 ± 0.004 | 0.706 ± 0.035
70 | EGWNSDNVYKLS [CYC2 C-terminal 12 aa] | 0.7213 ± 0.0026 | 0.598 ± 0.0034
71 | FLKNFTNDTFDN [BCH1 C-terminal 12 aa] | 0.7055 ± 0.0035 | 0.7462 ± 0.0044
72 | VSSLRKHGEHYS [TRM82 C-terminal 12 aa] | 0.704 ± 0.021 | 0.6079 ± 0.0053
73 | IGTLIPEPGVNV [DAP1 C-terminal 12 aa] | 0.6825 ± 0.0027 | 0.676 ± 0.032
74 | HGNWSRVVTDLN [BAT2 C-terminal 12 aa] | 0.6869 ± 0.0056 | 0.722 ± 0.1
75 | GLTLIGRQSDSI [RAD7 C-terminal 12 aa] | 0.7025 ± 0.0011 | 0.71 ± 0.074
76 | HDRSESDSDLDI [PLP1 C-terminal 12 aa] | 0.671 ± 0.015 | 0.677 ± 0.015
77 | GNTGSGGYDNAW [RPB3 C-terminal 12 aa] | 0.704 ± 0.052 | 0.723 ± 0.026
78 | LDKVGKKKGGKK [LRP1 C-terminal 12 aa] | 0.701 ± 0.049 | 0.689 ± 0.025
79 | DNTKESKDVKMN [RTT102 C-terminal 12 aa] | 0.6878 ± 0.004 | 0.673 ± 0.081
80 | SFTDVLGQEQFI [YLR252W C-terminal 12 aa] | 0.7269 ± 0.0054 | 0.699 ± 0.031
81 | SSQQLTLRPPLG [YGL109W C-terminal 12 aa] | 0.6922 ± 0.0068 | 0.669 ± 0.0086
82 | VVYYHMVCKNIT [YHR125W C-terminal 12 aa] | 0.5662 ± 0.0017 | 0.573 ± 0.038
